Our source for the percent reduction of platelet adhesion to FN, ED50 and fold reduction of apparent affinity against FN312-326 values is patent US6083914.

The target in assay [1] is platelets (human, fresh washed). As to the kind of experiment: competition: 300 uM soluble peptide against platelet adhesion to coated FN in the presence of Ca+2.
For assay [2] the target is unchanged. As to the kind of experiment: competition: soluble peptide against divalent cation-independent adhesion of platelets to coated 45 kDa.

B1: FN312-326 (peptide)
peptide: TAVTQTYGGNSNGEP
Regarding B1, the percent reduction of platelet adhesion to FN in assay [1] came out at 50%. Further, in assay [2], the ED50 is 68 µM.

B2: FN312-323 (peptide)
peptide: TAVTQTYGGNSN
Turning to B2, in assay [2], the ED50 was found to be 712 µM and the fold reduction of apparent affinity against FN312-326 stood at 10 fold.

B3: FN316-333 (peptide)
peptide: QTYGGNSNGEPSVLPFTY
For B3, in assay [2], the ED50 is over 2000 µM.

B4: FN312-318 (peptide)
peptide: TAVTQTY
Regarding B4, the ED50 in assay [2] was over 2000 µM.
